We go through one molecule from PMC10298926, “Biophysical Characterization of the Binding Mechanism between the MATH Domain of SPOP and Its Physiological Partners” (International Journal of Molecular Sciences, 2023).

Substrate in assay [1]: SPOP MATH K130A (UniProt O43791)
The assay is described as follows: stopped-flow fluorescence displacement; preincubated complex of MATH domain and dansylated peptide (both 8 µM) mixed with an excess of nondansylated peptide (50 µM); 298 K; same buffer as the binding experiments; single exponential decay gives koff.

Substrate in assay [2]: SPOP MATH Y124A (UniProt O43791)
The assay is described as above.

Substrate in assay [3]: SPOP MATH D131A (UniProt O43791)
Described as above.

Substrate in assay [4]: SPOP MATH F134A (UniProt O43791)
The description is as above.

Substrate in assay [5]: SPOP MATH Y88A (UniProt O43791)
The assay is described as above.

Substrate in assay [6]: SPOP MATH K135A (UniProt O43791)
The assay is described as above.

Substrate in assay [7]: SPOP MATH R71A (UniProt O43791)
The assay is described as above.

Assay [8] has as its target engineered MATH domain of SPOP (Speckle-type POZ protein), residues 1-182, cysteine residues substituted to serine (UniProt O43791). The assay is described as follows: stopped-flow fluorescence binding kinetics + other: stopped-flow fluorescence displacement; KD calculated by combining kon of the pseudo-first-order plots with koff of the displacement experiments; 298 K.
Substrate in assay [9]: SPOP MATH K130A (UniProt O43791)
The assay is described as follows: stopped-flow fluorescence binding kinetics; pseudo-first-order; 2 µM MATH mixed with dansylated peptide, 2 to 10 µM Puc and MacroH2A, 2 to 40 µM PTEN; excitation 280 nm; 298 K; kobs against peptide concentration fitted to a line, kon from the slope.

Substrate in assay [10]: SPOP MATH Y124A (UniProt O43791)
The description is as above.

Substrate in assay [11]: SPOP MATH D131A (UniProt O43791)
The assay is described as above.

Substrate in assay [12]: SPOP MATH F134A (UniProt O43791)
Described as above.

Substrate in assay [13]: SPOP MATH Y88A (UniProt O43791)
The assay is described as above.

Substrate in assay [14]: SPOP MATH K135A (UniProt O43791)
The assay is described as above.

Substrate in assay [15]: SPOP MATH R71A (UniProt O43791)
Described as above.

Assay [16] deals with engineered MATH domain of SPOP (Speckle-type POZ protein), residues 1-182, cysteine residues substituted to serine (UniProt O43791). The assay is described as follows: stopped-flow fluorescence displacement; preincubated complex of MATH domain and dansylated peptide (both 8 µM) mixed with an excess of nondansylated peptide (50 µM); 298 K; same buffer as the binding experiments; single exponential decay gives koff.

Assay [17] shares this target. The assay is described as follows: other fluorescence titration; equilibrium; FRET from the tryptophans of SPOP MATH (excited at 280 nm, emission 300-400 nm) to the dansyl of the peptide; MATH at constant concentration (2 µM in the methods, 1 µM in the results), dansylated peptide 0 to 40 µM; 298 K; hyperbolic fit.
Assay [18] has the same target. The experiment in a line: stopped-flow fluorescence binding kinetics; pseudo-first-order; 2 µM MATH mixed with dansylated peptide, 2 to 10 µM Puc and MacroH2A, 2 to 40 µM PTEN; excitation 280 nm; 298 K; kobs against peptide concentration fitted to a line, kon from the slope.

Where no end group is shown, it is not given here. The star is where a group is joined. Dansyl = CN(C)c1cccc2c(S(=O)(=O)*)cccc12

A word on the koff: it is a measure of how fast the partners let go of each other. A word on the Kd: it is a measure of binding affinity in units of concentration. For orientation: kon means the second-order rate constant of association. Consider Dansyl-DEVTSTTSSS [dansylated peptide mimicking Puc (region 96-105)], for which the koff in [1] turned out to be 123 s⁻¹; in assay [2], 78 s⁻¹; in [3], 241 s⁻¹; in [4] it was 15 s⁻¹; in assay [5], 302 s⁻¹; in assay [6], 45.2 s⁻¹. Further, the results for the koff in assay [7] and in assay [16] were 34 s⁻¹ and 26.1 s⁻¹, respectively. Also, the Kd in [8] and in assay [17] was 1.4 µM in each case. In addition, the kon in assay [9] was 1.3e+07 M⁻¹ s⁻¹; in [10] it was 6.71e+06 M⁻¹ s⁻¹; in assay [11] it was 1.82e+07 M⁻¹ s⁻¹; in [12], 9.4e+06 M⁻¹ s⁻¹; in [13] it was 1.44e+07 M⁻¹ s⁻¹; in assay [14], 6.3e+06 M⁻¹ s⁻¹. The kon in assay [15] was found to be 8.8e+06 M⁻¹ s⁻¹; in assay [18] it was 1.9e+07 M⁻¹ s⁻¹.
